Source: patent publication US11155602B2, “Polypeptides targeting HIV fusion” (priority 2015, dated 2021)
Residue numbers refer to the chain shown, from its start.

B1: 245 (protein)
chain: MGHHHHHHGGSVSDVPRDLEVVAATPTSLLISWKYQVHAYRYYRITYGETGGNSPVQEFTVPSVLSTATINGLKPGVDYTITVYAVTYGIISEPISINYRTEID
modifications: Adnectin
B2: 254 (protein)
chain: B1 chain with K34E, Q36K, H38D, A39S, N71S, I90D, I91D, E93A
modifications: Adnectin
B3: 255 (protein)
chain: B1 chain with K34E, Q36K, A39P, N71S, I90D, I91D, E93A
modifications: Adnectin
B4: 253 (protein)
chain: B1 chain with K34E, Q36K, H38D, N71S, I90D, I91D, E93A
modifications: Adnectin
B5: 249 (protein)
chain: B1 chain with K34E, Q36K, A39P, T67S, I70L, I90D, I91D, E93A
modifications: Adnectin
B6: 262 (protein)
chain: B1 chain with K34E, Q36K, H38D, A39G, Y40W, N71S, I90D, I91D, E93A
modifications: Adnectin
B7: 248 (protein)
chain: B1 chain with K34E, Q36K, A39P, S54T, T60R, N71S, G89A, I90D, I91A, E93A
modifications: Adnectin
B8: 246 (protein)
chain: B1 chain with K34E, Q36K, H38N, A39Y, Y40N, N71S, Y88E, I90V, I91Q, E93A
modifications: Adnectin
B9: 252 (protein)
chain: B1 chain with K34E, Q36K, H38A, A39H, Y40R, N71S, I90D, I91D, E93A
modifications: Adnectin
B10: 259 (protein)
chain: B1 chain with K34E, Q36K, A39P, T69K, N71S, I90D, I91D, E93A
modifications: Adnectin
B11: 258 (protein)
chain: B1 chain with K34E, Q36K, A39P, T67S, N71R, I90D, I91D, E93A
modifications: Adnectin
B12: 251 (protein)
chain: B1 chain with K34E, Q36K, A39P, T60N, N71S, I90D, I91D, E93A
modifications: Adnectin
B13: 257 (protein)
chain: B1 chain with K34E, Q36K, A39P, N71S, Y88N, I90D, I91D, E93A
modifications: Adnectin
B14: 263 (protein)
chain: B1 chain with K34E, Q36K, H38D, A39T, Y40W, N71S, I90D, I91D, E93A
modifications: Adnectin
B15: 261 (protein)
chain: B1 chain with K34E, Q36K, H38A, A39P, Y40W, N71S, I90D, I91D, E93A
modifications: Adnectin
B16: 260 (protein)
chain: B1 chain with K34E, Q36K, A39P, T60R, N71S, I90D, I91D, E93A
modifications: Adnectin
B17: 256 (protein)
chain: B1 chain with K34E, Q36K, A39P, N71S, I90D, I91A, E93A
modifications: Adnectin
B18: 250 (protein)
chain: B1 chain with K34E, Q36K, A39P, T67S, T69K, N71S, I90D, I91D, E93A
modifications: Adnectin
B19: 127 (protein)
chain: MGHHHHHHGGVSDVPRDLEVVAATPTSLLISWQYKVHPYRYYRITYGETGGNSPVQEFTVPSVLSSAQISGLKPGVDYTITVYAVTYGIESSPISINYRTPGG
modifications: Adnectin
B20: 128 (protein)
chain: B19 chain with Q33E, Q68E, E90D
modifications: Adnectin

test system: NL-Rluc virus; experiment: Combinectin potency assay: antiviral EC50, NL-Rluc virus in MT-2 cells, luciferase readout; assay type: cell-based, HIV-1; details: Anti-N17 Adnectin, Table 3
Procedure, shortened: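 MT-2 cells infected with replication-competent NL-Rluc HIV (nef replaced by Renilla luciferase) at MOI 0.01 for 1 h, then added to threefold-diluted peptides (11 concentrations, triplicate). After 4–5 days, luciferase measured by Dual Luciferase; EC50 relative to no-peptide wells.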

Row | Molecule | EC50
1 | B1 | 50 nM
2 | B2 | > 1000 nM
3 | B3 | 136 nM
4 | B4 | > 1000 nM
5 | B5 | 83 nM
6 | B6 | > 1000 nM
7 | B7 | > 1000 nM
8 | B8 | > 1000 nM
9 | B9 | > 1000 nM
10 | B10 | 135 nM
11 | B11 | 195 nM
12 | B12 | 186 nM
13 | B13 | > 1000 nM
14 | B14 | > 1000 nM
15 | B15 | > 1000 nM
16 | B16 | 188 nM
17 | B17 | 170 nM
18 | B18 | 218 nM
19 | B19 | 9 nM
20 | B20 | 18 nM
